The experiment concerns the target T1, EGFR expressed on A431, A1207 and D562 cell lines (human, UniProt P00533 25-1210).
T1 construct: whole, on cells; also called EGFR-expressing A431 cell line
Kind of experiment: competitive flow cytometry on A431 cells; blocked ligand: fluorescently labeled EGF (EGF-AL488).

Experimental findings from patent US20260144867A1 (TIGATX, published 2026) are described below.

B1: anti-EGFR IgA3.0min DP3 (antibody, V domains shown)
VH: QVQLVQSGAEVKKPGASVKVSCKASGYTFTSHWMHWVRQAPGQGLEWIGEFNPSNGRTNYNEKFKSKATMTVDTSTNTAYMELSSLRSEDTAVYYCASRDYDYDGRYFDYWGQGTLVTVSS
VL: DIQMTQSPSSLSASVGDRVTITCSASSSVTYMYWYQQKPGKAPKLLIYDTSNLASGVPSRFSGSGSGTDYTFTISSLQPEDIATYYCQQWSSHIFTFGQGTKVEIKR
notes: also called anti-EGFR IgA3.0min DS3
Consider B1, for which the “IC50 (read off the curve)” value is around 3 µg/mL.
